Data reported in patent US20210393745A1, “OLIGOMER EXTENDED INSULIN-FC CONJUGATES AND THEIR MEDICAL USE” (Novo Nordisk A/S, priority 2018, published 2021).

Tests used:
[1] = system: streptozotocin treated Sprague-Dawley rats; experiment: In vivo PD, blood glucose lowering in streptozotocin treated rats; design: species or system Sprague-Dawley rat; details: s.c. 30 nmol/kg, baseline corrected BG up to 10 days, difference from vehicle, mean
Method: (§1) Insulin-Fc conjugates were tested in vivo by subcutaneous (s.c.) administration to normal and streptozotocin (STZ) treated male Sprague-Dawley (SD) rats.
(§2) The rats were dosed s.c. in the neck region with a dose of 30 nmol/kg of the insulin-Fc conjugates. Blood samples for blood glucose and plasma insulin analysis were collected from the tongue vein up to 10 days post dosing. The insulin-Fc concentrations were measured by immuno-assay (LLOQ=1000 pM) and the resulting half-life values after s.c. dosing are shown in Table 4. The PK profiles for normal rats are shown in FIG. 3 and for streptozotocin treated rats in FIG. 6. Blood glucose (BG) was measured using Biosen S Line (EKF) and the BG and baseline corrected BG profiles for normal rats are shown in FIGS. 1 and 2 and for streptozotocin treated rats in FIGS. 4 and 5 respectively.

[2] = Stability study: purity by anionic exchange chromatography; format: physicochemical; details: purity %(5° C.) − purity %(30° C.), 30 μM, pH 7.4
Method: (§3) Samples for stability studies were prepared by weighing out 8-10 mg freeze-dried material. The freeze-dried material was solubilized to […] in a premade solution A (5 mM phophate (pH 7.4), 140 mM NaCl and 70 ppm polysorbate 20). Protein concentration was determined using absorbance at 280 nm using a Nanodrop 2000 (Thermo Fisher Scientific Inc.) and theoretical extinction coefficients. Dilution into solution A was done to reach a final concentration of 30 μM.
Anionic exchange chromatography was performed on an Ultra-Performance Liquid Chromatography system (Waters Acquity H-Class) equipped with a fluorescence detector (Waters Acquity FLR Detector). A Bio SAX column with dimensions 50×4.6 mm from Agilent, kept at 30° C., was used in gradient elution mode. Mobile phase A was 5/95 (v/v), acetonitrile/water with 25 mM BIS-TRIS propane, pH 7.3 and mobile phase B was 5/95 (v/v), acetonitrile/water with 25 mM BIS-TRIS propane and 350 mM NaCl, pH 7.3. Injection volume was 3 μL. The flow rate was kept at 0.5 mL/min with a linear gradient from 10 to 47% B in 3 min followed by a linear gradient from 47 to 55% B in 30 min. Peaks were detected with an emission wavelength of […] and data processing is performed with the EMPOWER 3 software from Waters. Samples were analysed for purity as percent API in relation to all other species.
Reported as Δ purity %=purity %(5° C.)−purity % (30° C.).
Stability of Fc-insulin analogues was evaluated by comparing purity from anion exchange chromatography and formation of high molecular weight products (HMWP) at 5° C. (control) versus 30° C. (heat induced stress). […] The amount of HMWP was decreased by 0.5-2% in the stressed sample versus the control, i.e. some aggregated material has disassociated during incubation at 30° C.

[3] = Stability study: high-molecular weight products by native size-exclusion chromatography; format: physicochemical; details: HMWP %(5° C.) − HMWP %(30° C.), 30 μM, pH 7.4
Method: as §3
Native size-exclusion chromatography was performed on a High-Performance Liquid Chromatography system (Waters Alliance) equipped with a UV/Vis detector (Waters 2489 UV/Vis detector). A Waters XBridge BEH 200 Å, 3.5 μm column with dimensions 7.8×300 mm, kept at 30° C., was used. The mobile phase was 50 mM sodium phosphate (pH 7.0), 50 mM NaCl, 5% isopropyl alcohol (v/v). Injection volume was 5 μL. The flow rate was kept at 0.5 mL/min. Peaks were detected using absorbance at 215 nm and data processing is performed with the EMPOWER 3 software from Waters. Samples were analysed for high molecular weight products (HMWP) by relating the total integral of material eluting before main peak with main monomeric peak. In all chromatograms, full baseline separation was observed. […]
Stability of Fc-insulin analogues was evaluated by comparing purity from anion exchange chromatography and formation of high molecular weight products (HMWP) at 5° C. […]

[4] = molecular target: T1, membrane-associated human IGF-1R (Homo sapiens, UniProt P08069); experiment: IGF-1 receptor affinity on membrane associated receptors (SPA); format: binding; details: membrane-associated IGF-1R, relative to human insulin
T1 construct: expressed in transfected cells; host or cells: BHK cells, pZem219B vector, plasma membrane preparation
T1 sequence (P08069 31-736 limits assumed): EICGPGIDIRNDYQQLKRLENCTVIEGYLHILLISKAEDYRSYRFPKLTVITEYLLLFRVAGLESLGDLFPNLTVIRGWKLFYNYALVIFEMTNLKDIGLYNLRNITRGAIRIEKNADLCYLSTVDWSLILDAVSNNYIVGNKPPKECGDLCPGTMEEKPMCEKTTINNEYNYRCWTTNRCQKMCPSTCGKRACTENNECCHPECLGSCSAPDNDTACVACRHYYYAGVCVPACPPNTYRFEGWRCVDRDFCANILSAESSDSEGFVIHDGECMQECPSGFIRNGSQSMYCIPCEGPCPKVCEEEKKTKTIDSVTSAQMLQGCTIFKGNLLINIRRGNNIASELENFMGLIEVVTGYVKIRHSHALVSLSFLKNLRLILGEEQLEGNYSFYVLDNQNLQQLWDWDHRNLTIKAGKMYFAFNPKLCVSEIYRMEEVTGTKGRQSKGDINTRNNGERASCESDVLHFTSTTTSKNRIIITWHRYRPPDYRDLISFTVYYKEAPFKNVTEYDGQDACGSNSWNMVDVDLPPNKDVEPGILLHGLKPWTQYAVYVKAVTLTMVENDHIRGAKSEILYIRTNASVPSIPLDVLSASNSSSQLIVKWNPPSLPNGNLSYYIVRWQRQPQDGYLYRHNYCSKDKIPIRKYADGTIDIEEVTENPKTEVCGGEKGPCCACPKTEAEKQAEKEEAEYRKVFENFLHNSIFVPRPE
T1 sequence (P08069 741-1367 partner limits assumed): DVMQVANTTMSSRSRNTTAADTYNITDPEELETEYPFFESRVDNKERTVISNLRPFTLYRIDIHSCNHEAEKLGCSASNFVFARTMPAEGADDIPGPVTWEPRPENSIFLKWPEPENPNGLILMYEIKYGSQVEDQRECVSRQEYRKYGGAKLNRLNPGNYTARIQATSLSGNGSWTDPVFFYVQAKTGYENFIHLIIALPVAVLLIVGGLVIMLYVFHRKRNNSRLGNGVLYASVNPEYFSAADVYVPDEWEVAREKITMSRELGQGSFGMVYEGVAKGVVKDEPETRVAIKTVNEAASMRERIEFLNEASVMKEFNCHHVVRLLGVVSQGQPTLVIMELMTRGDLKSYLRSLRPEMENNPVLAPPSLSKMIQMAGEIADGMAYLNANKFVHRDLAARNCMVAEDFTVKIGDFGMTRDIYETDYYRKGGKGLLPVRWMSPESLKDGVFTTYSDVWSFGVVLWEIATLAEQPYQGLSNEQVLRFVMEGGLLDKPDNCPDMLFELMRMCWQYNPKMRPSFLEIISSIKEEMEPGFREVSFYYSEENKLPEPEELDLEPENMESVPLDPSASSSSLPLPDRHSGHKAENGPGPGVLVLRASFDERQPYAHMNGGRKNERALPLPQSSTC
Method: (§4) Membrane-associated human IR and IGF-1R are purified from BHK cells stably transfected with the pZem219B vector containing either the human IR-A, IR-B or IGF-IR insert. BHK cells are harvested and homogenized in ice-cold buffer (25 mM HEPES pH 7.4, 25 mM CaCl2 and 1 mM MgCl2, 250 mg/L bacitracin, 0.1 mM Pefablock). The homogenates are layered on a 41% (w/v) sucrose cushion and centrifuged for 75 minutes at 95000 g at 4° C. The plasma membranes are collected, diluted 1:5 with buffer (as above) and centrifuged again for 45 minutes at 40000 g at 4° C. The pellets are resuspended in a minimal volume of buffer and drawn through a needle (size 23) three times before storage at −80° C. until usage. The relative binding affinity for either of the membrane-associated human IR-A, IR-B or IGF-1R is determined by competition binding in a SPA setup. IR assays are performed in duplicate in 96-well OptiPlates (Perkin-Elmer Life Sciences). Membrane protein is incubated with gentle agitation for 150 minutes at 25° C. with 50 pM [^125IA14Y]-human insulin in a total volume of […] assay buffer (50 mM HEPES, 150 mM NaCl, 5 mM MgSO4, 0.01% Triton X-100, 0.1% (w/v) HSA (Sigma A1887), Complete EDTA-free protease inhibitors), 50 μg of wheat germ agglutinate (WGA)-coated PVT microspheres (GE Healthcare) and increasing concentrations of ligand. Assays are terminated by centrifugation of the plate at 2000 rpm for 2 minutes and bound radioactivity quantified by counting on a TopCount NXT (Perkin-Elmer Life Sciences).
(§5) IGF-1R assays are conducted essentially as for the IR binding assays except that membrane-associated IGF-1R and 50 pM [^125I-Tyr31]-human IGF-1 were employed.

[5] = In vivo PK after s.c. dosing, normal rats; design: species or system Sprague-Dawley rat; details: s.c. 30 nmol/kg, mean value
Method: as §1, §2

[6] = molecular target: T2, membrane-associated human IR-A (Homo sapiens, UniProt P06213); experiment: Insulin receptor affinity on membrane associated receptors (SPA), IR-A; format: binding; details: relative to human insulin
T2 construct: expressed in transfected cells; host or cells: BHK cells, pZem219B vector, plasma membrane preparation
T2 sequence (P06213 28-1370 isoform P06213-2 limits assumed): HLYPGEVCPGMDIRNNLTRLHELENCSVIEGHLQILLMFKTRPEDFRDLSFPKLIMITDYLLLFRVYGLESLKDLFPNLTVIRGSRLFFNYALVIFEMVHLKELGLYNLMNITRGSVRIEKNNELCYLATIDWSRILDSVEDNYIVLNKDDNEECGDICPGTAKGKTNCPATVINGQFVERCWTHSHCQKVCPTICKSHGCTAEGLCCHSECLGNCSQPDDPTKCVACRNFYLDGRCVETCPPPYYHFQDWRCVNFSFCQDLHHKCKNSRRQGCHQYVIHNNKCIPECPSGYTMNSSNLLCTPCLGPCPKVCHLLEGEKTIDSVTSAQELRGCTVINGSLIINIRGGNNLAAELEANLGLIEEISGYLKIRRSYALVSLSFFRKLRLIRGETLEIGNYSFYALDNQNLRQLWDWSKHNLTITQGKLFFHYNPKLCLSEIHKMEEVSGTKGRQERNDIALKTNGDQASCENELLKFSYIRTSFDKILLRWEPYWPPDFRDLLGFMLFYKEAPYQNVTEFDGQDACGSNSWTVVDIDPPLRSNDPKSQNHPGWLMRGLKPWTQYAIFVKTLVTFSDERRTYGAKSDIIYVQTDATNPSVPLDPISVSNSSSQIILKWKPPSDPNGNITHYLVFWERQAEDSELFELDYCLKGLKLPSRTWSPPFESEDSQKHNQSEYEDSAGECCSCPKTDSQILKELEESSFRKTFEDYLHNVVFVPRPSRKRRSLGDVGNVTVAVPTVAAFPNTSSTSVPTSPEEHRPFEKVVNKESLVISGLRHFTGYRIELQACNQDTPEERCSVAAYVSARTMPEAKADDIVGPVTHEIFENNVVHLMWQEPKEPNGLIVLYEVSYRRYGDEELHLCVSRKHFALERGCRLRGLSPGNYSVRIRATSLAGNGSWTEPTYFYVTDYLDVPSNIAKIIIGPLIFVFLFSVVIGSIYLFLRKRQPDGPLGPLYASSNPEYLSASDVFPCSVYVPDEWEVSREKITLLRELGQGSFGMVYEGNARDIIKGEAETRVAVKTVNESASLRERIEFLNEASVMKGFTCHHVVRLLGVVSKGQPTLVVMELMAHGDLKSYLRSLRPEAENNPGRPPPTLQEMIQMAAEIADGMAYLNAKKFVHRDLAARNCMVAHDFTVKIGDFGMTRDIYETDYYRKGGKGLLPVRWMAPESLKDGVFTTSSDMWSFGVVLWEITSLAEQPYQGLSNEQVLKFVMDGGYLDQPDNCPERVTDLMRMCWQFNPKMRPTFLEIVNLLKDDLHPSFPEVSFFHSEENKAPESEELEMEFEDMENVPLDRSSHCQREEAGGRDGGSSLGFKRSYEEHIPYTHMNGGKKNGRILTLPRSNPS
T2 sequence (P06213 763-1382 partner limits assumed): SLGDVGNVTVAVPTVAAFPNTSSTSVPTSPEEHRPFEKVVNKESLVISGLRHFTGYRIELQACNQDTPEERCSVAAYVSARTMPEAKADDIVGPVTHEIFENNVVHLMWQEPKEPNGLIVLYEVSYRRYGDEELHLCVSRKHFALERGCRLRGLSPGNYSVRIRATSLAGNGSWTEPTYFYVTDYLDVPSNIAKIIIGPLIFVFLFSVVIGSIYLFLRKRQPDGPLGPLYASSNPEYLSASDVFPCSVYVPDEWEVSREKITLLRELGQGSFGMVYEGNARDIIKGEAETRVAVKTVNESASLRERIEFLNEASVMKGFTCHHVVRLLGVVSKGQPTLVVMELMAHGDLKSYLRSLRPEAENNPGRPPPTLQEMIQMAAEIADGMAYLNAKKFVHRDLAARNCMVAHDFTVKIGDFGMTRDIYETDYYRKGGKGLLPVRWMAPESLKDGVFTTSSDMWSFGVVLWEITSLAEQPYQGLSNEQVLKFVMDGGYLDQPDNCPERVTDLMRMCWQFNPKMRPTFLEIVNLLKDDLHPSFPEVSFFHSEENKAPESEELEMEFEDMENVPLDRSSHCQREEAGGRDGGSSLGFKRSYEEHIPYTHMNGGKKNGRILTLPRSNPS
Method: as §4, §5

[7] = In vivo PK after s.c. dosing, streptozotocin treated rats; design: species or system Sprague-Dawley rat; details: s.c. 30 nmol/kg, mean value
Method: as §1, §2

| Substance | AOCBG STZ rat [1] | Δ purity [2] | Δ HMWP % [3] | IGF1R mem Rel. aff. (%) [4] | PK normal rat [T1/2, s.c. (h)] [5] | hIR-A mem Rel. aff. (%) [6] | PK STZ rat [T1/2, s.c. (h)] [7] |
| --- | --- | --- | --- | --- | --- | --- | --- |
| (A14E, A21G, A22(GQEP)11, A66G, A67Q, A68E, A69K^, A70P, B16H, B25H, B29R, desB30 human insulin)/(226A, 227G, 228P, 234A, 235K, 297E, 315Q, 384Q, des447 hIgG4-Fc(226-447))3,5-bis[(2-acetyl)amino]benzoyl Conjugate [Example 5.2] | 4106 mM·h | 6.7% | −0.63% | 0.10% | 38 h | 1.27% | 39 h |
| (A14E, A21G, A22(GQEP)12, A70K^, A71P, B25H, B29R, desB30 human insulin)/(226A, 227G, 228P, 234A, 235K, 297E, 315Q, 384Q, des447 hIgG4-Fc(226-447))3,5-bis[(2-acetyl)amino]benzoyl Conjugate [Example 5.1] | 3181 mM·h | 3.3% | −2.17% | 0.91% | 20 h | 2.97% | 24 h |
